# Assay results reported in patent US20020146711A1 (published 2002).
# *: point of attachment. Biotin = O=C1N[C@H]2[C@H](CS[C@H]2CCCCC(=O)*)N1
# T1: SH3 binding peptide: biotin-SGSGILAPPVPPRNTR-COOH (SMILES …)
# T1 peptide: Biotin-SGSGILAPPVPPRNTR-OH
# B1: GST fusion of MMSC2 PDZ domain 1 (P15) (other)
# chain: EVFELLKPPSGGLGFSVVGLRSENRGELGIFVQEIQEGSVAHRDGRLKETDQILAINGQALDQTITHQQAISILQKAKDTVQLVIAR
# notes: GST placed N-terminal as in pGEX vectors; Adsorbed to ELISA wells; also called PDZ domain number 1; not shown: glutathione S-transferase (GST) encoded by pGEX vectors (Pharmacia)
# B2: GST fusion of MMSC2 PDZ domain 5 (P12) (other)
# chain: QHIELEKGSKGLGFSILDYQDPIDPASTVIIIRSLVPGGIAEKDGRLLPGDRLMFVNDVNLENSSLEEAVEALKGAPSGTVRIGVAK
# notes: GST placed N-terminal as in pGEX vectors; also called PDZ domain number 5; not shown: glutathione S-transferase (GST) encoded by pGEX vectors (Pharmacia)
# B3: GST fusion of MMSC2 PDZ domain 6 (P11) (other)
# chain: RTINIAKGNSSLGMTVSANKDGLGMIVRSIIHGGAISRDGRIAIGDCILSINEESTISVTNAQARAMLRRHSLIGPDIKITYVP
# notes: GST placed N-terminal as in pGEX vectors; also called PDZ domain number 6; not shown: glutathione S-transferase (GST) encoded by pGEX vectors (Pharmacia)
# B4: GST fusion of MMSC2 PDZ domain 7 (P9) (other)
# chain: RRVELWREPSKSLGISIVGGRGMGSRLSNGEVMRGIFIKHVLEDSPAGKNGTLKPGDRIVEVDGMDLRDASHEQAVEAIRKAGNPVVFMVQS
# notes: GST placed N-terminal as in pGEX vectors; also called PDZ domain number 7; not shown: glutathione S-transferase (GST) encoded by pGEX vectors (Pharmacia)
# B5: GST fusion of MMSC2 PDZ domain 8 (P8) (other)
# chain: HMIELEKGHSGLGLSLAGNKDRSRMSVFIVGIDPNGAAGKDGRLQIADELLEINGQILYGRSHQNASSIIKCAPSKVKIIFIR
# notes: GST placed N-terminal as in pGEX vectors; also called PDZ domain number 8; not shown: glutathione S-transferase (GST) encoded by pGEX vectors (Pharmacia)
# B6: GST fusion of MMSC2 PDZ domain 9 (P7) (other)
# chain: AVDLSSFKNVQHLELPKDQGGLGIAISEEDTLSGVIIKSLTEHGVAATDGRLKVGDQILAVDDEIVVGYPIEKFISLLKTAKMTVKLTIHA
# notes: GST placed N-terminal as in pGEX vectors; also called PDZ domain number 9; not shown: glutathione S-transferase (GST) encoded by pGEX vectors (Pharmacia)
# B7: GST fusion of MMSC2 PDZ domain 10 (P1) (other)
# chain: TTIEISKGRTGLGLSIVGGSDTLLGAIIIHEVYEEGAACKDGRLWAGDQILEVNGIDLRKATHDEAINVLRQTPQRVRLTLYR
# notes: GST placed N-terminal as in pGEX vectors; also called PDZ domain number 10; not shown: glutathione S-transferase (GST) encoded by pGEX vectors (Pharmacia)
# B8: GST fusion of MMSC2 PDZ domain 11 (P2) (other)
# chain: LTIELQKKPGKGLGLSIVGKRNDTGVFVSDIVKGGIADADGRLMQGDQILMVNGEDVRNATQEAVAALLKCSLGTVTLEVGR
# notes: GST placed N-terminal as in pGEX vectors; also called PDZ domain number 11; not shown: glutathione S-transferase (GST) encoded by pGEX vectors (Pharmacia)
# B9: GST fusion of MMSC2 PDZ domain 12 (P3) (other)
# chain: RTVEMKKGPTDSLGISIAGGVGSPLGDVPIFIAMMHPTGVAAQTQKLRVGDRIVTICGTSTEGMTHTQAVNLLKNASGSIEMQVVA
# notes: GST placed N-terminal as in pGEX vectors; also called PDZ domain number 12; not shown: glutathione S-transferase (GST) encoded by pGEX vectors (Pharmacia)
# B10: GST fusion of MMSC2 PDZ domain 13 (P4) (other)
# chain: KSITLERGPDGLGFSIVGGYGSPHGDLPIYVKTVFAKGAASEDGRLKRGDQIIAVNGQSLEGVTHEEAVAILKRTKGTVTLMVLS
# notes: GST placed N-terminal as in pGEX vectors; also called PDZ domain number 13; not shown: glutathione S-transferase (GST) encoded by pGEX vectors (Pharmacia)
# B11: GST fusion of MMSC2 PDZ domain 2 (P14) (other)
# chain: ETIELVNDGSGLGFGIIGGKATGVIVKTILPGGVADQHGRLCSGDHILKIGDTDLAGMSSEQVAQVLRQCGNRVKLMIAR
# notes: GST placed N-terminal as in pGEX vectors; also called PDZ domain number 2; not shown: glutathione S-transferase (GST) encoded by pGEX vectors (Pharmacia)
# B12: GST fusion of MMSC2 PDZ domain 3 (P13) (other)
# chain: FDVELTKNVQGLGITIAGYIGDKKLEPSGIFVKSITKSSAVEHDGRIQIGDQIIAVDGTNLQGFTNQQAVEVLRHTGQTVLLTLMR
# notes: GST placed N-terminal as in pGEX vectors; also called PDZ domain number 3; not shown: glutathione S-transferase (GST) encoded by pGEX vectors (Pharmacia)
# B13: GST fusion of MMSC2 PDZ domain 4 (P10) (other)
# chain: HVSKFSENSGLGISLEATVGHHFIRSVLPEGPVGHSGKLFSGDELLEVNGITLLGENHQDVVNILKELPIEVTMVCCR
# notes: GST placed N-terminal as in pGEX vectors; also called PDZ domain number 4; not shown: glutathione S-transferase (GST) encoded by pGEX vectors (Pharmacia)
# B14: MMAC1.388-403: biotin-ENEPFDEDQHTQITKV-COOH (peptide)
# peptide: Biotin-ENEPFDEDQHTQITKV-OH
# SMILES: CC[C@H](C)[C@H](NC(=O)[C@H](CCC(N)=O)NC(=O)[C@@H](NC(=O)[C@H](Cc1c[nH]cn1)NC(=O)[C@H](CCC(N)=O)NC(=O)[C@H](CC(=O)O)NC(=O)[C@H](CCC(=O)O)NC(=O)[C@H](CC(=O)O)NC(=O)[C@H](Cc1ccccc1)NC(=O)[C@@H]1CCCN1C(=O)[C@H](CCC(=O)O)NC(=O)[C@H](CC(N)=O)NC(=O)[C@H](CCC(=O)O)NC(=O)CCCC[C@@H]1SC[C@@H]2NC(=O)N[C@@H]21)[C@@H](C)O)C(=O)N[C@H](C(=O)N[C@@H](CCCCN)C(=O)N[C@H](C(=O)O)C(C)C)[C@@H](C)O
# notes: also called MMAC1 C-terminal PDZ peptide
# Biological target: B14
# Assay: ELISA, GST-PDZ domain on plate, biotin-peptide/streptavidin-alkaline phosphatase complex in solution
# Source text: (§1) cDNAs encoding each of the MMSC2 PDZ domains (amino acid residues identified in Table 1), and any desired control proteins, were generated by PCR and subcloned as glutathione S-transferase (GST) fusions in pGEX vectors (Pharmacia). After sequencing to confirm expression construct integrity, the resulting clones were expressed in E. coli and the desired fusion proteins isolated with glutathione-agarose and recovered with glutathione elution. These fusion proteins or control proteins were then adsorbed to different wells of a 96-well ELISA plate and remaining sites blocked with BSA. Synthetic commercially synthesized peptides encoding the desired PDZ-binding domain (i.e., the 16 C-terminal amino acids of MMAC1, or the C-terminal peptide sequences of interacting proteins identified by the approach of Example 2, or the C-terminal peptide sequences identified by the approach of Example 3), or a control peptide, and biotinylated at the amino-terminus, were pre-bound to streptavidin-alkaline phosphatase in a 4:1 molar ratio. The biotinylated peptide streptavidin-alkaline phosphatase complexes were then blocked with free biotin. These pre-bound peptide streptavidin-alkaline phosphatase complexes were then incubated with the immobilized PDZ domains in wash buffer containing PBS, BSA and triton-X100. Unbound material was removed with repeated washes. Bound peptide/streptavidin-alkaline phosphatase complex was then quantitated by a colorimetric phosphatase assay read on a 96-well plate reader. The following peptides were used in the initial study:
# (§2) The relative affinity of each of the 13 PDZ domains encoded by MMSC2 for an MMAC1 C-terminal PDZ peptide as measured by an ELISA assay is set forth in Table 2.
row,Binder,A405 [A405]
1,B1,0.011
2,B2,0
3,B3,0.016
4,B4,0.667
5,B5,0.006
6,B6,0.017
7,B7,0.174
8,B8,0.012
9,B9,0.003
10,B10,0.456
11,B11,0.001
12,B12,0.006
13,B13,0.024

# Biological target: T1, SH3 binding peptide: …
# Assay: as above
# Source text: as §1, §2
row,Binder,A405 [A405]
1,B1,0.007
2,B2,0.005
3,B3,0.017
4,B4,0.006
5,B5,0.008
6,B6,0.009
7,B7,0.002
8,B8,0.009
9,B9,0.011
10,B10,0.006
11,B11,0.006
12,B12,0.008
13,B13,0.01

# Biological target: B4
# Assay: summary of the PDZ binding assay
row,Binder,binding result
1,B14,binds

# Biological target: B7
# Assay: summary of the PDZ binding assay
row,Binder,binding result
1,B14,binds

# Biological target: B10
# Assay: summary of the PDZ binding assay
row,Binder,binding result
1,B14,binds
